The record followed here is patent US20160108113A1 (Genentech, published 2016).

The Kd is the constant that tells how readily two partners part at equilibrium.

“And” between values parts separate entries of the source, which are not always exact repeats. Identical values can stand only once.

Experiment [1] has as its target 13C/15N labeled recombinant human α-synuclein (human, UniProt P37840 1-140). Kind of experiment: NMR 2D HSQC-TROSY, 1:0.5 α-synuclein:Fab; cutoff for epitope residues was attenuation above 50. As to the method: (§1) NMR was used to identify the binding epitope of anti-α-synuclein monoclonal antibody 13F3 and of anti-α-synuclein monoclonal antibody 1F7 as follows. NMR samples were prepared by adding a solution of ¹³C/¹⁵N labeled recombinant human α-synuclein in PBS […] at a concentration of 1 mg/ml (71 μM) purchased from Giotto Biotech (Sesto Fiorentino (FI), Italy) to a volume of 180 μl into 3 mm NMR tubes. Complex formation of the antibody bound form of α-synuclein was achieved by addition of an 18 mg/ml (120 μM) solution of antibody 13F3 and 17.8 mg/ml (118 μM) of antibody 1F7 in PBS (pH 7.2) in aliquots of 9 μl to the NMR sample. 2D HSQC-TROSY spectra were recorded at increasing concentration of Fab and the proton-amide cross peak intensity monitored in CCPN. (See Vranken et al (2005) Proteins 59:687-696.) All spectra were recorded at calibrated 300 K on a Bruker 600 MHz spectrometer using a 5 mm TXI cryo-probe. The final molar ratio used for data analysis of 1:0.5 α-synuclein:Fab. All data was processed using Topspin 3.1 (Bruker Karlsruhe, Germany) and visualized and analyzed using CCPN. Samples of ¹³C/¹⁵N labeled α-synuclein were measured in PBS (pH 7.2) buffer at 1 mg/ml corresponding to a concentration of 71 μM. […] Signal intensities were evaluated in CCPN. The signal errors were extrapolated in CCPN based on the signal to noise of the recorded data. […]

In experiment [2] the target is T1, synthetic peptide corresponding to amino acid residues 105-123 in human α-synuclein (human).
T1 construct: also called unlabeled peptide
T1 peptide: EGAPQEGILEDMPVDPDNE
Kind of experiment: NMR competition, unlabeled peptide added to the Fab-α-synuclein complex. As to the method: as §1

Experiment [3] deals with T2, recombinant human α-synuclein (human, UniProt P37840 1-140). The experiment can be described thus: SPR Biacore T200, antibody captured on murine IgG capture chip, α-synuclein in solution, steady-state analysis, 25 C, Expt B. As to the method: (§2) Monovalent affinities of anti-α-synuclein antibodies 13F3 and 1F7 for human α-synuclein were assessed using Surface Plasmon Resonance in a Biacore T200 instrument. These experiments utilized an antibody capture format where the test antibody was immobilized by binding the test antibody to a chip pre-coated with a murine IgG capture reagent and subsequently allowed to bind α-synuclein protein in solution.
(§3) A murine IgG capture chip was prepared using the GE murine IgG capture kit according to the manufacturer's instructions. Briefly, a Series S CM5 sensor chip was activated with a mixture of EDC/NHS before exposure to a solution of capture antibody in a 10 mM sodium acetate (pH 5.0) buffer. Remaining covalent attachment sites were blocked with ethanolamine.
(§4) To assess binding, anti-α-synuclein monoclonal antibody 13F3 and anti-α-synuclein monoclonal antibody 1F7 were captured using a 1 μg/ml solution in running buffer (1×HBSP; 10 mM HEPES, pH 7.4, 150 mM NaCl, 0.05% Tween20) at a flow rate of 10 μl/min. Binding of human α-synuclein in solution was monitored at six different concentrations (a three-fold dilution series spanning concentrations from single-digit nanomolar to greater than 1 μM) and one replicate concentration, at a flow rate of 30 μl/min. […]
For orientation: In SPR one partner is held on a chip, and binding of the other changes the refractive index at the surface.

Experiment [4] deals with T2, recombinant human α-synuclein. The experiment can be described thus: SPR Biacore T200, antibody captured on murine IgG capture chip, α-synuclein in solution, steady-state analysis, 25 C, Expt A. As to the method: as §2, §3, §4
Experiment [5] shares this target. The experiment can be described thus: SPR Biacore T200, antibody capture format, steady-state analysis (text summary of Table 2). As to the method:
as §2, §3, §4

Experiment [6] has as its target T3, peptide corresponding to amino acid residues 37-51 of human α-synuclein (human).
T3 construct: One of a series of 15-mer peptides spanning the length of human α-synuclein; also called 15-mer peptide
T3 peptide: VLYVGSKTKEGVVHG
The experiment can be described thus: peptide mapping with a series of 15-mer peptides.

B1: anti-α-synuclein monoclonal antibody 13F3 Fab (Fab, V domains shown)
VH: QVQLQQSGAELVKPGASVKMSCKASGYTFTSYWITWVKKRPGQGLEWIGDISPGSGSTHYNEKFKSKATLTVDTSSSTAYIQLFSLTSEDSAVYYCAIAQTTFAYWGQGTLVTVSA
VL: DVLMTQTPLSLPVSLGDQASISCRSSQSIVHSNGNTYLEWYLQKPGQSPKLLIYKVSNRFSGVPDRFSGSGSGTDFTLKISRVEAEDLGVYYCFQGSHVPPTFGGGTRLEIK
notes: also called 13F3 Fab fragment
With B1, in experiment [1], the “NMR signal attenuation at isoleucine 112” value was 1.79 fold. In addition, in experiment [2], the binding result was “binds”.

B2: anti-α-synuclein monoclonal antibody 13F3 (mIgG2a) (antibody, V domains shown)
VH: B1 VH
VL: B1 VL
notes: Mouse monoclonal, mIgG2a, expressed recombinantly in 293 cells
As for B2, the Kd was 460 nM in experiment [3]; 410 nM and 490 nM in experiment [4]; 450 nM and 470 nM in experiment [5].

B3: anti-α-synuclein monoclonal antibody 1F7 (mIgG2a) (antibody, V domains shown)
VH: EVQLQQSGAELVKPGASVKLSCTASGFNIKDYYMDWVKQRTEQGLEWIARIDPEDGETKYAPKFQGKATITADTSSNTAYLQLSSLTSEDTAVYYCRVFDYWGQGTTLTVSS
VL: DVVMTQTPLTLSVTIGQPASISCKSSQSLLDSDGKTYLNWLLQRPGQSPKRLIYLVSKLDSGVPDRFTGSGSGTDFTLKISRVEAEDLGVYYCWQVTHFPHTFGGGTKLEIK
notes: as for B2
In the case of B3, in experiment [6], the binding result is on record as “binds”. Further, the Kd in experiment [3] came to 160 nM; in experiment [4], 130 nM; in experiment [5], 180 nM.
